The supplement of paper PMC9876800

System: peptide library, one residue held at a place counted from the S/T acceptor
Experiment: relative phosphorylation of the sub-library (ratio to the mean residue at this position); higher = residue favoured
Summary of the method: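 Each biotinylated degenerate peptide sub-library fixed one residue at one position around a central Ser/Thr and was incubated with a purified recombinant kinase, a human or orthologue construct, in 384-well plates. The 90 min reactions, under kinase-specific conditions, contained 50 μM peptide and 50 μM ATP spiked with γ-32P-ATP. Phosphorylation was read by phosphorimaging spots on streptavidin membranes and quantifying them by densitometry. Relative sub-library phosphorylation expresses each value as a ratio to the mean residue at that position.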

Sequence of CILK1, construct: Full length, human (Q9UPZ9 whole entry, looked up): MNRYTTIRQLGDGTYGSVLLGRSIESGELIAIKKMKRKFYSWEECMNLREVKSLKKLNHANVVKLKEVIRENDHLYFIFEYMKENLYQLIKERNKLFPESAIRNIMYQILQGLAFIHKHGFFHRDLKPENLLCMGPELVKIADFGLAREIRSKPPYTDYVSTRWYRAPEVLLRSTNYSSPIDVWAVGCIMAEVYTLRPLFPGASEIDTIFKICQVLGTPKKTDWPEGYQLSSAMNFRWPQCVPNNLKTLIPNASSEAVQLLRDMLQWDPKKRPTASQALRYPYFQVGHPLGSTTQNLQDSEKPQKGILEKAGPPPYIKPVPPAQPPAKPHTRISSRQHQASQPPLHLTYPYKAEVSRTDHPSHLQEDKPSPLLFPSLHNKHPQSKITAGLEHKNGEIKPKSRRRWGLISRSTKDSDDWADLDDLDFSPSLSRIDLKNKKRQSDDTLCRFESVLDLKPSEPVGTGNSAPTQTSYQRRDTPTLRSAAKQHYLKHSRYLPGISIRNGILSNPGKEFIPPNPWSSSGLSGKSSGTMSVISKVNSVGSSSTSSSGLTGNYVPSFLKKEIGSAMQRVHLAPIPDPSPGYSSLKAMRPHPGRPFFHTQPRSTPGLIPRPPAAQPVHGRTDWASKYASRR
Sequence of CDKL5, construct: aa1-352, mouse (Q3UTQ8 1-352, looked up): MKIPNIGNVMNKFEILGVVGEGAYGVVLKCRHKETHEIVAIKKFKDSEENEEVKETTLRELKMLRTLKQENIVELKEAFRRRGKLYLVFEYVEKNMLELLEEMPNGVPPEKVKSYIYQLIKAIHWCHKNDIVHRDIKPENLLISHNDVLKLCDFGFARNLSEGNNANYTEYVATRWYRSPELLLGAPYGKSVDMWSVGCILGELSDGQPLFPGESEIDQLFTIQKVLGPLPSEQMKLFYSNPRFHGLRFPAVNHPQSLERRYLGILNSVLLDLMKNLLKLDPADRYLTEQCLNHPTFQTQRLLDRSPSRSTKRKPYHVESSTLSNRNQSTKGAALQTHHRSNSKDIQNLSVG

CDKL5, construct: aa1-352, mouse (from UniProt Q3UTQ8)
relative phosphorylation
Details	at +1	at +2	at +3	at +4	at -1	at -2	at -3	at -4	at -5
A fixed	4.03	0.798	1.01	0.928	1.15	0.826	0.761	1.03	1.12
D fixed	0.548	0.548	0.634	0.701	0.779	0.559	0.412	0.625	0.556
E fixed	0.528	0.56	0.567	0.593	0.581	0.543	0.427	0.652	0.543
F fixed	0.588	0.903	1.03	1.02	0.782	0.665	0.49	0.866	1.07
G fixed	1.51	0.936	1.03	1.07	1.22	1.06	0.65	1.04	1.24
H fixed	0.679	1.32	0.979	1.19	0.916	0.7	0.61	0.928	1.17
I fixed	0.584	0.853	0.914	0.915	0.812	0.681	0.559	0.9	0.958
K fixed	0.861	1.77	1.42	1.25	1.49	0.976	0.826	1.46	1.24
L fixed	0.564	0.851	0.896	0.925	1.04	0.817	0.516	0.938	0.974
M fixed	0.6	0.832	0.876	0.94	1.08	0.718	0.531	0.997	0.972
N fixed	0.592	0.924	0.895	1.01	0.737	0.575	0.6	0.861	0.8
P fixed	2.33	0.697	1.07	1.09	1.11	5.09	0.758	1.1	0.909
Q fixed	0.704	0.903	0.926	0.909	1.1	0.693	0.658	1.03	0.854
R fixed	1.06	2.48	1.71	1.51	1.49	1.05	7.65	1.9	1.65
V fixed	0.624	0.757	1.01	0.798	0.885	0.715	0.538	0.977	0.88
W fixed	0.631	0.828	0.852	1.17	1.04	0.691	0.515	0.847	1.07
Y fixed	0.563	1.04	1.19	0.987	0.794	0.645	0.499	0.844	0.994
pThr fixed	0.581	0.54	0.682	0.65	0.567	0.588	0.456	0.785	0.702
pTyr fixed	0.522	0.61	0.636	0.626	0.53	0.534	0.458	0.652	0.594

CILK1, construct: Full length, human (from UniProt Q9UPZ9)
relative phosphorylation
Details	at +1	at +2	at +3	at +4	at -1	at -2	at -3	at -4	at -5
A fixed	1.36	0.902	0.838	1.02	0.938	0.718	0.93	1.04	0.881
D fixed	0.474	1.08	0.774	0.815	0.661	0.491	0.557	0.803	1.07
E fixed	0.464	0.744	0.722	0.771	0.577	0.498	0.498	0.825	0.875
F fixed	0.972	0.992	0.98	0.809	0.675	0.559	0.567	0.922	0.991
G fixed	1.22	1.08	1.23	1.29	1.22	0.82	0.734	1.08	1.03
H fixed	0.668	1.27	1.22	1.25	1.04	0.615	0.662	0.982	1.1
I fixed	0.907	0.936	0.834	0.819	0.497	0.55	0.556	0.768	0.802
K fixed	0.752	0.968	1.33	1.09	1.63	1.09	1.07	1.21	1.1
L fixed	0.818	0.859	0.957	0.933	0.755	0.616	0.556	0.835	0.953
M fixed	0.929	0.967	0.877	0.926	1.13	0.652	0.709	1.03	0.929
N fixed	0.601	1.13	0.883	1.09	1.15	0.619	0.651	0.92	0.917
P fixed	3.85	0.907	1.15	1.22	1.36	4.79	1.09	1.19	1.04
Q fixed	0.751	1.07	1.07	1.11	1.46	0.938	0.794	1.03	1
R fixed	0.79	1.02	1.25	1.04	1.53	2.19	5.98	1.55	1.32
V fixed	0.877	0.781	0.799	0.739	0.694	0.555	0.515	0.791	0.776
W fixed	0.87	1.12	1.02	1.03	0.835	0.69	0.609	1.14	1.15
Y fixed	0.702	1.17	1.08	1.05	0.845	0.604	0.522	0.89	1.06
pThr fixed	0.722	0.66	0.828	1.06	0.459	0.561	0.625	0.828	0.807
pTyr fixed	0.711	0.992	0.796	0.93	0.513	0.514	0.564	0.68	0.841
